Reference: patent US20220267415A1 (University of Texas, published 2022)
Values joined by “and” are separate entries in the source; they are usually repeats but may differ in a detail not shown here. Identical values can stand only once. Like-named read-outs stand apart in the source and are kept apart here.

Legend:
[1] = biological target: T1, recombinant SARS-CoV-2 Receptor Binding Domain (RBD) with a his tag (ATUM, Cat. 65639.1.a) (SARS-CoV-2, UniProt P0DTC2 319-541)
[2] = biological target: T1, recombinant SARS-CoV-2 Receptor Binding …; experiment: ELISA on coated RBD-his
[3] = biological target: T2, SARS-CoV-2 spike protein, wild type, on live virus (SARS-CoV-2-mNG / USA-WA1/2020) (SARS-CoV-2, UniProt P0DTC2 13-1273); experiment: cell-based or functional assay
[4] = biological target: T2, SARS-CoV-2 spike protein, wild type, on …; experiment: cell-based or functional assay; remark: listed apart in the source
[5] = biological target: T2, SARS-CoV-2 spike protein, wild type, on …; experiment: cell-based or functional assay; remark: listed apart in the source
[6] = biological target: T2, SARS-CoV-2 spike protein, wild type, on …; experiment: cell-based or functional assay; remark: listed apart in the source
[7] = biological target: T2, SARS-CoV-2 spike protein, wild type, on …; experiment: cell-based or functional assay; remark: listed apart in the source
[8] = biological target: T3, recombinant Spike protein (Sino Biologicals Cat #40589-V08B1) (SARS-CoV-2, UniProt P0DTC2 13-1213); experiment: BLI (Octet), His-tagged S on Ni-NTA sensor, avidity
[9] = biological target: T3, recombinant Spike protein (Sino …); experiment: ELISA on coated recombinant spike
[10] = biological target: T3, recombinant Spike protein (Sino …); experiment: BLI (Octet), avidity to spike
[11] = biological target: T1, recombinant SARS-CoV-2 Receptor Binding …; remark: listed apart in the source
[12] = biological target: T2, SARS-CoV-2 spike protein, wild type, on …; experiment: cell-based or functional assay; remark: listed apart in the source

B1: anti-SARS-CoV2-16 IgM (antibody)
VH: QVQLHQWGAGLLKPSETLSRTCAVYGGSFSGYYWTWIRQAPGKGLEWIGEINHGGSTRYNPSLESRVSISVDTSKKQFSLELRSVTAADTAIYYCARGYDTNWYGDGYNWFDPWDRGTLVTVSS
VL: QAVVTQPPSVSGTPGQRVTISCSGSSSSIGSNTVHWYQHLPGTAPKLLMYNNNERPSGVPARFSGSKSGTSASLVITGLQADDEAEYYCQSYDTGLSGHVFGSGTELTVL
chain: not shown
For B1, the “EC50 (read off the curve)” value [1] was ~0.3 nM and the EC50 [2] was 0.3 nM.

B2: anti-SARS-CoV2-09 IgA2m2 (antibody)
VH: B1 VH
VL: QSALTQDPSVSVALGQTVRITCQGDSLRGSFASWYRQKPGQAPVLVIFGINNRPSGVPDRFSGSSSGNTASLTITGAQAEDEADYYCNSRESNSNRILFGGGTKVTVL
chain: not shown
B2 gave an EC50 [2] of 1.4 nM.

B3: anti-SARS-CoV2-09 IgA1 (antibody)
VH: B1 VH
VL: B2 VL
chain: not shown
B3 gave an EC50 [2] of 1 nM.

B4: anti-SARS-CoV2-16 IgA2m2 (antibody)
VH: B1 VH
VL: B1 VL
chain: not shown
With B4 the “EC50 (read off the curve)” value [1] was ~0.6 nM and the EC50 [2] was 0.6 nM.

B5: anti-SARS-CoV2-16 IgA1 (antibody)
VH: B1 VH
VL: B1 VL
chain: not shown
With B5 the “EC50 (read off the curve)” value [1] was ~0.5 nM and the EC50 [2] was 0.6 nM.

B6: anti-SARS-CoV2-14 IgG (lambda-VL-kappa-CL hybrid light chain) (antibody, V domains shown)
VH: EVQLQQSGPGLVKPSQTLSLTCAISGDSVSSNSAAWNWIRQSPSRGLEWLGRTYYRSKWYNDYAVSVKSRITINPDTSKNQFSLQLNSVTPEDTAVYYCAREEQQLVHDYYYYGMDVWGQGTMVTVSS
VL: QAVVTQPASVSGSPGQSITISCTGTSSDIGAYNYISWYQQHPGKAPKLIIYEVSNRPSGISYRFSGSKSGNTASLTISGLQAEDEANYYCSSYAGSISFGGGTKVTVL
For B6, the “EC50 (neutralization of live SARS-CoV-2-mNG)” value [3] was 2.6 nM and 0.39 µg/ml and the “Neutralization EC50” value [4] was 0.39 µg/mL.

B7: anti-SARS-CoV2-14 IgA2m2 (antibody)
VH: B6 VH
VL: B6 VL
chain: not shown
For B7, the EC50 [2] was 14 nM.

B8: anti-SARS-CoV2-14 IgA1 (antibody)
VH: B6 VH
VL: B6 VL
chain: not shown
B8 showed an EC50 [2] of 1.9 nM.

B9: anti-SARS-CoV2-14 IgG (full lambda light chain) (antibody, V domains shown)
VH: B6 VH
VL: B6 VL
For B9, the “Neutralization EC50 (PRNT)” value [5] was 0.32 µg/mL, the “Neutralization EC50” value [6] was 0.6 µg/mL and the “Neutralization EC50 (PRNT)” value [7] was 0.51 µg/mL.

B10: anti-SARS-CoV2-14 IgM (lambda-VL-kappa-CL hybrid light chain) (antibody)
heavy: EVQLQQSGPGLVKPSQTLSLTCAISGDSVSSNSAAWNWIRQSPSRGLEWLGRTYYRSKWYNDYAVSVKSRITINPDTSKNQFSLQLNSVTPEDTAVYYCAREEQQLVHDYYYYGMDVWGQGTMVTVSSGSASAPTLFPLVSCENSPSDTSSVAVGCLAQDFLPDSITFSWKYKNNSDISSTRGFPSVLRGGKYAATSQVLLPSKDVMQGTDEHVVCKVQHPNGNKEKNVPLPVIAELPPKVSVFVPPRDGFFGNPRKSKLICQATGFSPRQIQVSWLREGKQVGSGVTTDQVQAEAKESGPTTYKVTSTLTIKESDWLSQSMFTCRVDHRGLTFQQNASSMCVPDQDTAIRVFAIPPSFASIFLTKSTKLTCLVTDLTTYDSVTISWTRQNGEAVKTHTNISESHPNATFSAVGEASICEDDWNSGERFTCTVTHTDLPSPLKQTISRPKGVALHRPDVYLLPPAREQLNLRESATITCLVTGFSPADVFVQWMQRGQPLSPEKYVTSAPMPEPQAPGRYFAHSILTVSEEEWNTGETYTCVVAHEALPNRVTERTVDKSTGKPTLYNVSLVMSDTAGTCY
VL: B6 VL
chain: not shown
In the case of B10, the Kd [8] is reported as 0.102 nM, the koff [8] is reported as 0.00034 s⁻¹ and the kon [8] is reported as 3.35e+06 M⁻¹ s⁻¹. For the same binder, the EC50 [9] was 0.046 nM, the “fold change of ELISA EC50 (IgM-14 against IgG-14)” value [9] was 135 fold and the “EC50 (neutralization of live SARS-CoV-2-mNG)” value [3] was 0.01 µg/ml and 0.011 nM. For the same binder, the “Fold change of neutralization EC50 in nM (IgM-14 against IgG-14)” value [3] was 236 fold, the “Fold change of neutralization EC50 in µg/ml (IgM-14 against IgG-14)” value [3] was 39 fold and the “fold change of KD (IgM-14 against IgG-14)” value [10] was 13.6 fold. For the same binder, the “fold change of Kdis (IgM-14 against IgG-14)” value [10] was 0.26 fold, the “fold change of Kon (IgM-14 against IgG-14)” value [10] was 3.59 fold and the “Neutralization EC50” value [4] was 0.015 µg/mL. For the same binder, the EC50 [2] was 0.7 nM and the “EC50 (read off the curve)” value [11] was ~0.7 nM.

B11: anti-SARS-CoV2-26 IgA1 (antibody)
VH: not shown
VL: QSALTQPPSASGTPGQRVTISCSGSSSNIGSNSVNWYQQVPGTAPKLLIYANDHRPSGVPDRFSGSKSGTSASLAISGLQSEDEADYYCAAWDNSLKGVVFGGGTKVTVL
chain: not shown
With B11 the EC50 [2] was 1.8 nM.

B12: anti-SARS-CoV2-26 IgA2m2 (antibody)
VH: not shown
VL: B11 VL
chain: not shown
For B12, the EC50 [2] was 38 nM.

B13: anti-SARS-CoV2-14 IgM (full lambda light chain) (antibody)
heavy: B10 heavy
light: QAVVTQPASVSGSPGQSITISCTGTSSDIGAYNYISWYQQHPGKAPKLIIYEVSNRPSGISYRFSGSKSGNTASLTISGLQAEDEANYYCSSYAGSISFGGGTKVTVLGQPKAAPSVTLFPPSSEELQANKATLVCLISDFYPGAVTVAWKADSSPVKAGVETTTPSKQSNNKYAASSYLSLTPEQWKSHRSYSCQVTHEGSTVEKTVAPTECS
chain: not shown
B13 was tested, and the “Fold-Increase in potency of IgM over IgG” value [5] was 61 fold, the “Neutralization EC50 (PRNT)” value [5] was 0.0052 µg/mL and the “Neutralization EC50” value [6] was 0.0046 µg/mL. The “Fold-Increase in potency of IgM over IgG” value [7] was 46 fold and the “Neutralization EC50 (PRNT)” value [7] was 0.011 µg/mL.

B14: anti-SARS-CoV2-06 IgM (lambda-VL-kappa-CL hybrid light chain) (antibody)
VH: QVELQESGPGLVKPSGTLSLTCAVSGGSISSNNWWTWVRQPPGKGLEWIGEIHHSGGTNYNPSLKSRVTMSVDKSKNQFSLNLYSVTAADTAVYYCTRDRAGGTYSGFDFWGQGTLVTVSS
VL: QAVVTQPASVSGSPGQSITISCTGTSSDVGGYNYVSWYQQHPGKAPKLMIYDVSNRPSGVSNRFSGSKSGNTASLTISGLQAEDEADYYCSSYTSSSTVVFGGGTKVTVL
chain: not shown
In the case of B14, the “Neutralization EC50” value [4] is reported as 0.059 µg/mL, the “EC50 (neutralization of live SARS-CoV-2-mNG)” value [12] is reported as 0.06 µg/ml and 0.067 nM and the “Fold change of neutralization EC50 in nM (IgM-06 against IgG-06)” value [12] is reported as 14.9 fold. For the same binder, the “Fold change of neutralization EC50 in µg/ml (IgM-06 against IgG-06)” value [12] was 2.5 fold.

B15: anti-SARS-CoV2-06 IgG (lambda-VL-kappa-CL hybrid light chain) (antibody, V domains shown)
VH: B14 VH
VL: B14 VL
For B15, the “Neutralization EC50” value [4] was 0.22 µg/mL and the “EC50 (neutralization of live SARS-CoV-2-mNG)” value [12] was 0.15 µg/ml and 1 nM.
